B1: Pistol ribozyme (parent)
chain: GGGUCGUUGUUCCAUAAUCGCGUGGAUAUGGCACGCAAGUUUCUACCGGGCACCGUAAAUGUCCGACUGGAGCCGUUCGGGCGGCUAUAAACAGACCUCAGGCCCGAAGCGUGGCGGCACCUGCCGCCGGUGGUAAAAAAGAUCGGAAGAGCACACGUCU

Variants of: B1
Assay: aptazyme ON/OFF ratio, guanine; higher = stronger switching; co-transcriptional cleavage with and without guanine

Variant | aptazyme ON/OFF ratio
GGGUCGUCGUCCCAUAAUCGCGUGGAUAUGGCACGCAAGUUUCUACCGGGCACCGUAAAUGUCCGACUGGAGCCGUUCGGGCGGCUAUAAACAGACCUCAGGCCCGAAGCGUGGCGGCACCUGCCGCCGGUGGUAAAAAAGAUCGGAAGAGCACACGUCU [U8C U11C] | 1.18
GGGUCGUCGUACCAUAAUCGCGUGGAUAUGGCACGCAAGUUUCUACCGGGCACCGUAAAUGUCCGACUGGAGCCGUUCGGGCGGCUAUAAACAGACCUCAGGCCCGAAGCGUGGCGGCACCUGCCGCCGGUGGUAAAAAAGAUCGGAAGAGCACACGUCU [U8C U11A] | 1.15
GGGUCGUCGUAAUAUAAUCGCGUGGAUAUGGCACGCAAGUUUCUACCGGGCACCGUAAAUGUCCGACUGGAGCCGUUCGGGCGGCUAUAAACAGACCUCAGGCCCGAAGCGUGGCGGCACCUGCCGCCGGUGGUAAAAAAGAUCGGAAGAGCACACGUCU [U8C U11A C12A C13U] | 1.28
GGGUCGUCGUAAAAUAAUCGCGUGGAUAUGGCACGCAAGUUUCUACCGGGCACCGUAAAUGUCCGACUGGAGCCGUUCGGGCGGCUAUAAACAGACCUCAGGCCCGAAGCGUGGCGGCACCUGCCGCCGGUGGUAAAAAAGAUCGGAAGAGCACACGUCU [U8C U11A C12A C13A] | 1.32
GGGUCGUCGUAAGAUAAUCGCGUGGAUAUGGCACGCAAGUUUCUACCGGGCACCGUAAAUGUCCGACUGGAGCCGUUCGGGCGGCUAUAAACAGACCUCAGGCCCGAAGCGUGGCGGCACCUGCCGCCGGUGGUAAAAAAGAUCGGAAGAGCACACGUCU [U8C U11A C12A C13G] | 1.11
GGGUCGUCGGGUCAUAAUCGCGUGGAUAUGGCACGCAAGUUUCUACCGGGCACCGUAAAUGUCCGACUGGAGCCGUUCGGGCGGCUAUAAACAGACCUCAGGCCCGAAGCGUGGCGGCACCUGCCGCCGGUGGUAAAAAAGAUCGGAAGAGCACACGUCU [U8C U10G U11G C12U] | 1.32
GGGUCGUCGUCGAAUAAUCGCGUGGAUAUGGCACGCAAGUUUCUACCGGGCACCGUAAAUGUCCGACUGGAGCCGUUCGGGCGGCUAUAAACAGACCUCAGGCCCGAAGCGUGGCGGCACCUGCCGCCGGUGGUAAAAAAGAUCGGAAGAGCACACGUCU [U8C U11C C12G C13A] | 1.37
GGGUCGUCGUCGUAUAAUCGCGUGGAUAUGGCACGCAAGUUUCUACCGGGCACCGUAAAUGUCCGACUGGAGCCGUUCGGGCGGCUAUAAACAGACCUCAGGCCCGAAGCGUGGCGGCACCUGCCGCCGGUGGUAAAAAAGAUCGGAAGAGCACACGUCU [U8C U11C C12G C13U] | 1.36
GGGUCGUCGUCGGAUAAUCGCGUGGAUAUGGCACGCAAGUUUCUACCGGGCACCGUAAAUGUCCGACUGGAGCCGUUCGGGCGGCUAUAAACAGACCUCAGGCCCGAAGCGUGGCGGCACCUGCCGCCGGUGGUAAAAAAGAUCGGAAGAGCACACGUCU [U8C U11C C12G C13G] | 1.36
GGGUCGUCGUACUAUAAUCGCGUGGAUAUGGCACGCAAGUUUCUACCGGGCACCGUAAAUGUCCGACUGGAGCCGUUCGGGCGGCUAUAAACAGACCUCAGGCCCGAAGCGUGGCGGCACCUGCCGCCGGUGGUAAAAAAGAUCGGAAGAGCACACGUCU [U8C U11A C13U] | 1.11
GGGUCGUCGUACAAUAAUCGCGUGGAUAUGGCACGCAAGUUUCUACCGGGCACCGUAAAUGUCCGACUGGAGCCGUUCGGGCGGCUAUAAACAGACCUCAGGCCCGAAGCGUGGCGGCACCUGCCGCCGGUGGUAAAAAAGAUCGGAAGAGCACACGUCU [U8C U11A C13A] | 1.13
GGGUCGUCGUACGAUAAUCGCGUGGAUAUGGCACGCAAGUUUCUACCGGGCACCGUAAAUGUCCGACUGGAGCCGUUCGGGCGGCUAUAAACAGACCUCAGGCCCGAAGCGUGGCGGCACCUGCCGCCGGUGGUAAAAAAGAUCGGAAGAGCACACGUCU [U8C U11A C13G] | 1.07
GGGUCGUCGUCACAUAAUCGCGUGGAUAUGGCACGCAAGUUUCUACCGGGCACCGUAAAUGUCCGACUGGAGCCGUUCGGGCGGCUAUAAACAGACCUCAGGCCCGAAGCGUGGCGGCACCUGCCGCCGGUGGUAAAAAAGAUCGGAAGAGCACACGUCU [U8C U11C C12A] | 1.14
GGGUCGUCGUCUCAUAAUCGCGUGGAUAUGGCACGCAAGUUUCUACCGGGCACCGUAAAUGUCCGACUGGAGCCGUUCGGGCGGCUAUAAACAGACCUCAGGCCCGAAGCGUGGCGGCACCUGCCGCCGGUGGUAAAAAAGAUCGGAAGAGCACACGUCU [U8C U11C C12U] | 1.55
GGGUCGUCGUCGCAUAAUCGCGUGGAUAUGGCACGCAAGUUUCUACCGGGCACCGUAAAUGUCCGACUGGAGCCGUUCGGGCGGCUAUAAACAGACCUCAGGCCCGAAGCGUGGCGGCACCUGCCGCCGGUGGUAAAAAAGAUCGGAAGAGCACACGUCU [U8C U11C C12G] | 1.34
GGGUCGUCGGGUGAUAAUCGCGUGGAUAUGGCACGCAAGUUUCUACCGGGCACCGUAAAUGUCCGACUGGAGCCGUUCGGGCGGCUAUAAACAGACCUCAGGCCCGAAGCGUGGCGGCACCUGCCGCCGGUGGUAAAAAAGAUCGGAAGAGCACACGUCU [U8C U10G U11G C12U C13G] | 1.12
GGGUCGUCGGGUAAUAAUCGCGUGGAUAUGGCACGCAAGUUUCUACCGGGCACCGUAAAUGUCCGACUGGAGCCGUUCGGGCGGCUAUAAACAGACCUCAGGCCCGAAGCGUGGCGGCACCUGCCGCCGGUGGUAAAAAAGAUCGGAAGAGCACACGUCU [U8C U10G U11G C12U C13A] | 1.11
GGGUCGUCGGGUUAUAAUCGCGUGGAUAUGGCACGCAAGUUUCUACCGGGCACCGUAAAUGUCCGACUGGAGCCGUUCGGGCGGCUAUAAACAGACCUCAGGCCCGAAGCGUGGCGGCACCUGCCGCCGGUGGUAAAAAAGAUCGGAAGAGCACACGUCU [U8C U10G U11G C12U C13U] | 1.23

Reference: the RNAGym collection of RNA variant scans (doi:10.1021/acssynbio.7b00057)
